{
  "source": "patent US20260374883",
  "about": "(published 2026)",
  "binders": {"B1": {"name": "m1F8-2 (antibody, V domains shown)", "VH": "QVQLQQSGAELARPGASVKLSCKASGFTFTNYWMQWIKQRPGQGLEWIGAIYPGSGESRYTRKFKGKATLTADKSSSTAYMQLNSLASEDSAVYYCARWAGYSRNAAYWGQGTLVTVSA", "VL": "DVLMTQTPLSLPVSLGDQASISCRSRQSIVHSSGNTYLEWYLQKPGQSPKLLIYKVSNRFSGVPDRFSGSGSGTDFTLKISRVEAEDLGVYYCFQGSHIPPTFGGGTKLEIK"}, "B2": {"name": "m1F8-1 (antibody, V domains shown)", "VH": "B1 VH", "VL": "B1 VL with R26S"}},
  "key": {"[1]": {"biological_target": "T1, mouse CX3CR1 (mouse, UniProt Q9Z0D9)", "T1 chain": "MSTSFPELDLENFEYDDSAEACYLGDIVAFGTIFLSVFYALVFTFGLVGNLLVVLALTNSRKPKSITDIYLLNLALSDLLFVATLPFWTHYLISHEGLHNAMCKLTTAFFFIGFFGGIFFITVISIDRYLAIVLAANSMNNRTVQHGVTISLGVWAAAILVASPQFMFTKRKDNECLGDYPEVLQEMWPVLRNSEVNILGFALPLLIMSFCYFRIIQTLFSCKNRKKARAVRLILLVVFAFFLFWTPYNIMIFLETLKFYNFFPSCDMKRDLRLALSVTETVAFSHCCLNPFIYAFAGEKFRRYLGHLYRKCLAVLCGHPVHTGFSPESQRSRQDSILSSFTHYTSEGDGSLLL", "experiment": "FACS"}, "[2]": {"biological_target": "T2, rat CX3CR1 (rat, UniProt P35411)", "T2 chain": "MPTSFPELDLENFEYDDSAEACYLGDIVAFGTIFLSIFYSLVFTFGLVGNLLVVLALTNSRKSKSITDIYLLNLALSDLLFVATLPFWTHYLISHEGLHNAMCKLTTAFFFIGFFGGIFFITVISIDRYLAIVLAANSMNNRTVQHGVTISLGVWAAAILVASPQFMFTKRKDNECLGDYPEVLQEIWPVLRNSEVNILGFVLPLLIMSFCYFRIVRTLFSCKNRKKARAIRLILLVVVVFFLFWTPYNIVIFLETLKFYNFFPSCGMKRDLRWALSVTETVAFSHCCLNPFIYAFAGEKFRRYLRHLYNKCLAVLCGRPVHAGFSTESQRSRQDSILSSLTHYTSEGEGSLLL", "experiment": "FACS"}},
  "note": "Changes are numbered by the printed parent chain.",
  "data": [
    {"binder": "B1", "values": [
      {"measurement": "binding result", "setting": "[1]", "result": "no binding"},
      {"measurement": "binding result", "setting": "[2]", "result": "no binding"}
    ]},
    {"binder": "B2", "values": [
      {"measurement": "binding result", "setting": "[1]", "result": "no binding"},
      {"measurement": "binding result", "setting": "[2]", "result": "no binding"}
    ]}
  ]
}
